System: kinases of Table 6 on Myelin Basic Protein (MBP)
Experiment: Kinase assay using MBP substrate, ProQ Diamond stain (Table 6)
Assay type: biochemical
Conditions: kinase printed on MBP-coated slide; 20 uM ATP, 30° C.; ProQ Diamond Microarray Stain; graded Strong/Weak/Negative
Procedure, shortened: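 Reactions ran at 30° C. with 20 uM ATP, 4 mM MgCl2 and 5% DMSO in HEPES pH 7.5, inhibitor added or omitted. Kinases had been arrayed onto slide-bound dephosphorylated bovine MBP; phospho-signal read after ProQ Diamond staining.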

Molecule | MBP Kinase Activity
SGK2 (protein, left off: a dimerising Fc or GST) LPDHCYRMNSSPAGTPSPQPSRANGNINLGPSANPNAQPTDFDFLKVIGKGNYGKVLLAKRKSDGAFYAVKVLQKKSILKKKEQSHIMAERSVLLKNVRHPFLVGLRYSFQTPEKLYFVLDYVNGGELFFHLQRERRFLEPRARFYAAEVASAIGYLHSLNIIYRDLKPENILLDCQGHVVLTDFGLCKEGVEPEDTTSTFCGTPEYLAPEVLRKEPYDRAVDWWCLGAVLYEMLHGLPPFYSQDVSQMYENILHQPLQIPGGRTVAACDLLQSLLHKDQRQRLGSKADFLEIKNHVFFSPINWDDLYHKRLTPPFNPNVTGPADLKHFDPEFTQEAVSKSIGCTPDTVASSSGASSAFLGFDYAPEDDDILDC | Weak
FGFR2 (protein, left off: small tags and cut ends) RMKNTTKKPDFSSQPAVHKLTKRIPLRRQVTVSAESSSSMNSNTPLVRITTRLSSTADTPMLAGVSEYELPEDPKWEFPRDKLTLGKPLGEGCFGQVVMAEAVGIDKDKPKEAVTVAVKMLKDDATEKDLSDLVSEMEMMKMIGKHKNIINLLGACTQDGPLYVIVEYASKGNLREYLRARRPPGMEYSYDINRVPEEQMTFKDLVSCTYQLARGMEYLASQKCIHRDLAARNVLVTENNVMKIADFGLARDINNIDYYKKTTNGRLPVKWMAPEALFDRVYTHQSDVWSFGVLMWEIFTLGGSPYPGIPVEELFKLLKEGHRMDKPANCTNELYMMMRDCWHAVPSQRPTFKQLVEDLDRILTLTTNEEYLDLSQPLEQYSPSYPDTRSSCSSGDDSVFSPDPMPYEPCLPQYPHINGSVKT | Strong
TAOK2(TAO1) (protein, left off: a dimerising Fc or GST) MPAGGRAGSLKDPDVAELFFKDDPEKLFSDLREIGHGSFGAVYFARDVRNSEVVAIKKMSYSGKQSNEKWQDIIKEVRFLQKLRHPNTIQYRGCYLREHTAWLVMEYCLGSASDLLEVHKKPLQEVEIAAVTHGALQGLAYLHSHNMIHRDVKAGNILLSEPGLVKLGDFGSASIMAPANSFVGTPYWMAPEVILAMDEGQYDGKVDVWSLGITCIELAERKPPLFNMNAMSALYHIAQNESPVLQSGHWSEYFRNFVDSCLQKIPQDRPTSEVLLKHRFVLRERPPTVIMDLIQRTKDAVRELDNLQYRKMKK | Strong
TTK (protein, left off: a dimerising Fc or GST) MESEDLSGRELTIDSIMNKVRDIKNKFKNEDLTDELSLNKISADTTDNSGTVNQIMMMANNPEDWLSLLLKLEKNSVPLSDALLNKLIGRYSQAIEALPPDKYGQNESFARIQVRFAELKAIQEPDDARDYFQMARANCKKFAFVHISFAQFELSQGNVKKSKQLLQKAVERGAVPLEMLEIALRNLNLQKKQLLSEEEKKNLSASTVLTAQESFSGSLGHLQNRNNSCDSRGQTTKARFLYGENMPPQDAEIGYRNSLRQTNKTKQSCPFGRVPVNLLNSPDCDVKTDDSVVPCFMKRQTSRSECRDLVVPGSKPSGNDSCELRNLKSVQNSHFKEPLVSDEKSSELIITDSITLKNKTESSLLAKLEETKEYQEPEVPESNQKQWQSKRKSECINQNPAASSNHWQIPELARKVNTEQKHTTFEQPVFSVSKQSPPISTSKWFDPKSICKTPSSNTLDDYMSCFRTPVVKNDFPPACQLSTPYGQPACFQQQQHQILATPLQNLQVLASSSANECISVKGRIYSILKQIGSGGSSKVFQVLNEKKQIYAIKYVNLEEADNQTLDSYRNEIAYLNKLQQHSDKIIRLYDYEITDQYIYMVMECGNIDLNSWLKKKKSIDPWERKSYWKNMLEAVHTIHQHGIVHSDLKPANFLIVDGMLKLIDFGIANQMQPDTTSVVKDSQVGTVNYMPPEAIKDMSSSRENGKSKSKISPKSDVWSLGCILYYMTYGKTPFQQIINQISKLHAIIDPNHEIEFPDIPEKDLQDVLKCCLKRDPKQRISIPELLAHPYVQIQTHPVNQMAKGTTEEMKYVLGQLVGLNSPNSILKAAKTLYEHYSGGESHNSSSSKTFEKKRGKK | Negative
TAOK3(JIK) (protein, left off: a dimerising Fc or GST) MRKGVLKDPEIADLFYKDDPEELFIGLHEIGHGSFGAVYFATNAHTSEVVAIKKMSYSGKQTHEKWQDILKEVKFLRQLKHPNTIEYKGCYLKEHTAWLVMEYCLGSASDLLEVHKKPLQEVEIAAITHGALHGLAYLHSHALIHRDIKAGNILLTEPGQVKLADFGSASMASPANSFVGTPYWMAPEVILAMDEGQYDGKVDIWSLGITCIELAERKPPLFNMNAMSALYHIAQNDSPTLQSNEWTDSFRRFVDYCLQKIPQERPTSAELLRHDFVRRDRPLRVLIDLIQRTKDAVRELDNLQYRKMKKILFQETRNGPLNESQEDEEDSEHGTSLNREMDSLGSNHSIPSMSVSTGSQSSSVNSMQEVMDESSSELVMMHDDESTINSSSSVVHKKDHVFIRDEAGHGDPRPEPRPTQSVQSQALHYRNRERFATIKSASLVTRQIHEHEQENELREQMSGYKRMRRQHQKQLIALENKLKAEMDEHRLKLQKEVETHANNSSIELEKLAKKQVAIIEKEAKVAAADEKKFQQQILAQQKKDLTTFLESQKKQYKICKEKIKEEMNEDHSTPKKEKQERISKHKENLQHTQAEEEAHLLTQQRLYYDKNCRFFKRKIMIKRHEVEQQNIREELNKKRTQKEMEHAMLIRHDESTRELEYRQLHTLQKLRMDLIRLQHQTELENQLEYNKRRERELHRKHVMELRQQPKNLKAMEMQIKKQFQDTCKVQTKQYKALKNHQLEVTPKNEHKTILKTLKDEQTRKLAILAEQYEQSINEMMASQALRLDEAQEAECQALRLQLQQEMELLNAYQSKIKMQTEAQHERELQKLEQRVSLRRAHLEQKIEEELAALQKERSERIKNLLERQEREIETFDMESLRMGFGNLVTLDFPKEDYR | Strong
SRPK2 (protein, left off: a dimerising Fc or GST) MSSRKVLAIQARKRRPKREKHPKKPEPQQKAPLVPPPPPPPPPPPPPLPDPTPPEPEEEILGSDDEEQEDPADYCKGGYHPVKIGDLFNGRYHVIRKLGWGHFSTVWLCWDMQGKRFVAMKVVKSAQHYTETALDEIKLLKCVRESDPSDPNKDMVVQLIDDFKISGMNGIHVCMVFEVLGHHLLKWIIKSNYQGLPVRCVKSIIRQVLQGLDYLHSKCKIIHTDIKPENILMCVDDAYVRRMAAEATEWQKAGAPPPSGSAVSTAPQQKPIGKISKNKKKKLKKKQKRQAELLEKRLQEIEELEREAERKIIEENITSAAPSNDQDGEYCPEVKLKTTGLEEAAEAETAKDNGEAEDQEEKEDAEKENIEKDEDDVDQELANIDPTWIESPKTNGHIENGPFSLEQQLDDEDDDEEDCPNPEEYNLDEPNAESDYTYSSSYEQFNGELPNGRHKIPESQFPEFSTSLFSGSLEPVACGSVLSEGSPLTEQEESSPSHDRSRTVSASSTGDLPKAKTRAADLLVNPLDPRNADKIRVKIADLGNACWVHKHFTEDIQTRQYRSIEVLIGAGYSTPADIWSTACMAFELATGDYLFEPHSGEDYSRDEDHIAHIIELLGSIPRHFALSGKYSREFFNRRGELRHITKLKPWSLFDVLVEKYGWPHEDAAQFTDFLIPMLEMVPEKRASAGECLRHPWLNS | Strong
STK22D(TSSK1) (protein, left off: small tags and cut ends) MDDAAVLKRRGYLLGINLGEGSYAKVKSAYSERLKFNVAIKIIDRKKAPADFLEKFLPREIEILAMLNHCSIIKTYEIFETSHGKVYIVMELAVQGDLLELIKTRGALHEDEARKKFHQLSLAIKYCHDLDVVHRDLKCDNLLLDKDFNIKLSDFSFSKRCLRDDSGRMALSKTFCGSPAYAAPEVLQGIPYQPKVYDIWSLGVILYIMVCGSMPYDDSNIKKMLRIQKEHRVNFPRSKHLTGECKDLIYHMLQPDVNRRLHIDEILSHCWMQPKARGSPSVAINKEGESSRGTEPLWTPEPGSDKKSATKLEPEGEAQPQAQPETKPEGTAMQMSRQSEILGFPSKPSTMETEEGPPQQPPETRAQ | Strong
STK22B(TSSK2) (protein, left off: small tags and cut ends) MDDATVLRKKGYIVGINLGKGSYAKVKSAYSERLKFNVAVKIIDRKKTPTDFVERFLPREMDILATVNHGSIIKTYEIFETSDGRIYIIMELGVQGDLLEFIKCQGALHEDVARKMFRQLSSAVKYCHDLDIVHRDLKCENLLLDKDFNIKLSDFGFSKRCLRDSNGRIILSKTFCGSAAYAAPEVLQSIPYQPKVYDIWSLGVILYIMVCGSMPYDDSDIRKMLRIQKEHRVDFPRSKNLTCECKDLIYRMLQPDVSQRLHIDEILSHSWLQPPKPKATSSASFKREGEGKYRAECKLDTKTGLRPDHRPDHKLGAKTQHRLLVVPENENRMEDRLAETSRAKDHHISGAEVGKAST | Negative
SGKL(SGK3) (protein, UniProt Q96BR1 1-496, looked up) Serine/threonine-protein …: MQRDHTMDYKESCPSVSIPSSDEHREKKKRFTVYKVLVSVGRSEWFVFRRYAEFDKLYNTLKKQFPAMALKIPAKRIFGDNFDPDFIKQRRAGLNEFIQNLVRYPELYNHPDVRAFLQMDSPKHQSDPSEDEDERSSQKLHSTSQNINLGPSGNPHAKPTDFDFLKVIGKGSFGKVLLAKRKLDGKFYAVKVLQKKIVLNRKEQKHIMAERNVLLKNVKHPFLVGLHYSFQTTEKLYFVLDFVNGGELFFHLQRERSFPEHRARFYAAEIASALGYLHSIKIVYRDLKPENILLDSVGHVVLTDFGLCKEGIAISDTTTTFCGTPEYLAPEVIRKQPYDNTVDWWCLGAVLYEMLYGLPPFYCRDVAEMYDNILHKPLSLRPGVSLTAWSILEELLEKDRQNRLGAKEDFLEIQNHPFFESLSWADLVQKKIPPPFNPNVAGPDDIRNFDTAFTEETVPYSVCVSSDYSIVNASVLEADDAFVGFSYAPPSEDLFL | Weak
STK17A(DRAK1) (protein, left off: a dimerising Fc or GST) MIPLEKPGSGGSSPGATSGSGRAGRGLSGPCRPPPPPQARGLLTEIRAVVRTEPFQDGYSLCPGRELGRGKFAVVRKCIKKDSGKEFAAKFMRKRRKGQDCRMEIIHEIAVLELAQDNPWVINLHEVYETASEMILVLEYAAGGEIFDQCVADREEAFKEKDVQRLMRQILEGVHFLHTRDVVHLDLKPQNILLTSESPLGDIKIVDFGLSRILKNSEELREIMGTPEYVAPEILSYDPISMATDMWSIGVLTYVMLTGISPFLGNDKQETFLNISQMNLSYSEEEFDVLSESAVDFIRTLLVKKPEDRATAEECLKHPWLTQSSIQEPSFRMEKALEEANALQEGHSVPEINSDTDKSETKESIVTEELIVVTSYTLGQCRQSEKEKMEQKAISKRFKFEEPLLQEIPGEFIY | Negative

Reference: US20090099029A1, “Methods and substrates for conducting assays” (Invitrogen Corporation, priority 2005, published 2009)
